Assay results as given in FireProtDB (doi:10.1021/bi00444a012).

B1: Subtilisin BPN', P00782 (parent)
chain: MRGKKVWISLLFALALIFTMAFGSTSSAQAAGKSNGEKKYIVGFKQTMSTMSAAKKKDVISEKGGKVQKQFKYVDAASATLNEKAVKELKKDPSVAYVEEDHVAHAYAQSVPYGVSQIKAPALHSQGYTGSNVKVAVIDSGIDSSHPDLKVAGGASMVPSETNPFQDNNSHGTHVAGTVAALNNSIGVLGVAPSASLYAVKVLGADGSGQYSWIINGIEWAIANNMDVINMSLGGPSGSAALKAAVDKAVASGVVVVAAAGNEGTSGSSSTVGYPGKYPSVIAVGAVDSSNQRASFSSVGPELDVMAPGVSIQSTLPGNKYGAYNGTSMASPHVAGAAALILSKHPNWTNTQVRSSLENTTTKLGDSFYYGKGLINVQAAAQ

Variants of: B1
Conditions: Bacillus amyloliquefaciens, pH 8, Thermal, DSC, Tris-HCl 5.0 mM, KCl 50 mM, reversible: yes, structure 1SUP, whole UniProt chain shown; for ddG of mutation (higher = less stable): 58.8 °C

Y324K
ddG of mutation (higher = less stable): -0.72 kcal/mol

Q313C
ddG of mutation (higher = less stable): -1.25 kcal/mol
Tm: 63.2 °C
change of melting temperature, mutant - wild type (higher = more stable): 4.7 °C

M157F
ddG of mutation (higher = less stable): -0.48 kcal/mol
Tm: 60.3 °C
change of melting temperature, mutant - wild type (higher = more stable): 1.8 °C

N183D
ddG of mutation (higher = less stable): -0.45 kcal/mol
Tm: 60.2 °C
change of melting temperature, mutant - wild type (higher = more stable): 1.7 °C

N325S
ddG of mutation (higher = less stable): -1.07 kcal/mol
Tm: 62.5 °C
change of melting temperature, mutant - wild type (higher = more stable): 4 °C

G276A
ddG of mutation (higher = less stable): -0.3 kcal/mol
Tm: 59.6 °C
change of melting temperature, mutant - wild type (higher = more stable): 1.1 °C
